System: syngeneic mouse model of neuroblastoma
Assay: Vaccination with histone H2A-transfected NXS2 cells, syngeneic mouse model of neuroblastoma
Format: in vivo
Conditions: subcutaneous immunization, histone H2A transient transfection; challenge with wild type tumor cells
Source text: The present invention also contemplates use of the H2A-derived peptides to facilitate gene delivery in vivo. This embodiment is based on the successful subcutaneous immunization in a novel syngeneic mouse model of neuroblastoma with a single chain IL-12 fusion protein that was mediated by histone H2A transient transfection.
For this approach with intact histone H2A and also extendable to the peptides of this invention, mouse IL-2 and scIL-12 were cloned into the expression vector pcDNA3.1 (Invitrogen, Carlsbad, Calif.) as previously described (Lode et al., Proc. Natl. Acad. Sci., USA, 95:2475-2480, 1998). […] Supercoiled DNA was quantitated on 0.9% agarose gels using Stratagene's Eagle Eye. […] production was quantified on a 24 hour basis in cell culture supernatants using an ELISA assay kit (Biosource, Camarillo, Calif.) and compared with standard preparations of these cytokines. […]
NXS2 cells were tested routinely for the absence of mycoplasma contamination (Gen Probe® Mycoplasma Rapid Detection System, Fisher Scientific, Pittsburgh, Pa.). […] Cell viability was determined using trypan blue staining (Life Technologies, Gaithersburg, Md.), and the number of viable cells per experimental condition were determined. […]

B1: IL-2: mouse IL-2 expressed from pcDNA3.1 in transfected NXS2 cells (protein, UniProt P04351 21-169, looked up)
Interleukin-2: APTSSSTSSSTAEAQQQQQQQQQQQQHLEQLLMDLQELLSRMENYRNLKLPRMLTFKFYLPKQATELKDLQCLEDELGPLRHVLDLTQSKSFQLEDAENFISNIRVTVVKLKGSDNTFECQFDDESATVVDFLRRWIAFCQSIISTSPQ
tumor immunity: no tumor immunity

Source: patent US20040102606A1, “Histone H2A -derived peptides useful in gene delivery” (priority 2003, published 2004)
